Where no end group is shown, it is not given here.
Columns and labels:
[1] = target: T1, PDGF-BB (Homo sapiens, UniProt P01127); assay: Equilibrium binding of PDGF-BB to FN, FN domains and peptides
Excerpt: (§1) This led us to speculate that PDGF was binding to the engineered ECM through the H or HV domain since vascular endothelial GF (VEGF), a member of the PDGF superfamily, had been reported to bind H and remain active while bound.
(§2) The survival of FN-null fibroblasts in the presence to PDGF-BB required substrate coated with intact FN or FNIII8-11+a PDGF-binding FN domain. […] To address this directly, we performed equilibrium binding assays with PDGF-BB to FN adsorbed to a surface or coupled to agarose beads. In addition, we also investigated the ability of other growth factors to bind intact FN.

[2] = target: PDGF-BB binding to FNIII1, FNIII12-14 and IIICS (Homo sapiens, UniProt P01127); assay: Inhibition of PDGF-BB binding to FN domains by FNIII1 peptides
Chain of PDGF-BB binding to FNIII1, FNIII12-14 and IIICS (P01127 82-190 limits assumed): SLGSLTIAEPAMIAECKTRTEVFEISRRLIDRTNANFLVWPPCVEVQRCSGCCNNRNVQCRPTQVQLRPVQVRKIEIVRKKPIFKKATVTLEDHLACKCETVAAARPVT
Excerpt: Next, we determined if PDGF-BB-binding peptides from FNIII1 could inhibit PDGF-BB binding to FNIII1, FNIII12-14 and IIICS. For initial experiments we selected peptide 1 and peptide 2. For control, we used scrambled peptide 1.

[3] = target: TGF-β1 binding to any recombinant FN domain (Homo sapiens, UniProt P01137); assay: Inhibition of TGF-β1 binding to recombinant FN domains
Chain of TGF-β1 binding to any recombinant FN domain (P01137 279-390 limits assumed): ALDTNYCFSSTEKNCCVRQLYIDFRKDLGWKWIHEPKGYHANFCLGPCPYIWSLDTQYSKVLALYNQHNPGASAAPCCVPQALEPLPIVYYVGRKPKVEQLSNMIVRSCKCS

[4] = target: bFGF binding to any recombinant FN domain (Homo sapiens, UniProt P09038); assay: Inhibition of bFGF binding to recombinant FN domains
Chain of bFGF binding to any recombinant FN domain (P09038 134-288 limits assumed): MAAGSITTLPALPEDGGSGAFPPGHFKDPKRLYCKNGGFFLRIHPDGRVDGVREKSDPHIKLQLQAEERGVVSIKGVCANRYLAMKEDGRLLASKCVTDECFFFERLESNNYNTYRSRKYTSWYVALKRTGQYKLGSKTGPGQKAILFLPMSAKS

[5] = target: T1, PDGF-BB; assay: Surface plasmon resonance kinetic binding of PDGF-BB to FN domains
Excerpt: VEGF, TGF-β1, PDGF-BB and FGF-2 bound IIICS with similar affinities (KD˜10^−7 M). […] The tested biological activities of GFs bound to a FN functional domain were retained or enhanced. […] In addition, our studies provide important information regarding the delivery of GFs and the sequestering of GFs, as appropriate, for therapeutic (e.g., surgical) or aesthetic indications, including wound healing treatments (where an aim is GF delivery) and cancer treatments (where an aim is GF sequestration). Where FN fragments are used to deliver GFs, they may be described as maintaining, activating, stabilizing or enhancing GF activity. […]

[6] = target: T2, TGF-β1 (Homo sapiens, UniProt P01137); assay: Plasmon surface resonance kinetic binding of TGF-β1 to FN domains; conditions: plasmon resonance
T2 sequence (P01137 279-390 limits assumed, species assumed): as the sequence (P01137 279-390 limits assumed) above
Excerpt: (§3) VEGF, TGF-β1, PDGF-BB and FGF-2 bound IIICS with similar affinities (KD˜10^−7 M). […] The tested biological activities of GFs bound to a FN functional domain were retained or enhanced. […] In addition, our studies provide important information regarding the delivery of GFs and the sequestering of GFs, as appropriate, for therapeutic (e.g., surgical) or aesthetic indications, including wound healing treatments (where an aim is GF delivery) and cancer treatments (where an aim is GF sequestration). Where FN fragments are used to deliver GFs, they may be described as maintaining, activating, stabilizing or enhancing GF activity.
(§4) To determine whether FN domains bind TGF-β1 and bFGF, equilibrium and kinetic binding was performed.

[7] = target: FGF-2 (Homo sapiens, UniProt P09038); assay: Plasmon resonance binding of FGF-2 to FN domains
Chain of FGF-2 (P09038 143-288): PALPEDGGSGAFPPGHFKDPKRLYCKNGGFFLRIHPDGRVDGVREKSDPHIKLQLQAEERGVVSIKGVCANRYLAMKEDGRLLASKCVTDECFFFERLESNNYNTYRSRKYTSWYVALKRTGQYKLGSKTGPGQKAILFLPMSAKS
Excerpt: as §3

[8] = tested on: VEGF; assay: Plasmon resonance binding of VEGF to FN domains
Excerpt: as §3

[9] = tested on: GFs; assay: Growth factor binding to FN domains (GFs in general)
Excerpt: as §1

[10] = tested on: mouse fibroblasts null for FN (FN−/−); assay: Survival of FN-null fibroblasts on FN domains with PDGF-BB; assay type: cell-based; conditions: for FN-null cell survival with PDGF: plastic precoated with 0.15 μM GST-tagged FNIII8-11 ± the named domain, or named protein, PDGF-BB added 1 day after plating, 3 days; for FN-null cell survival / proliferation with PDGF-BB: FNIII8-11 + the named domain, or named protein
Excerpt: To further investigate the response of cells to PDGF-BB bound to FN domains, we investigated the survival response of mouse fibroblasts null for FN (FN−/−). First we determined the response of FN-null cells to PDGF-BB in the absence of serum or other sources of exogenous FN. […] […] […] Importantly, differential response of FN-null cells, plated on different FN domains, to PDGF-BB was not secondary to differences in attachment as judged by cell counts two hours after plating. The FNIII8-11 central cell binding domain was present in all circumstances.

[11] = tested on: human dermal fibroblasts; assay: Type 1 collagen production by fibroblasts on FN domain coated plates preincubated with TGF-β1; assay type: cell-based; conditions: for type 1 collagen production in response to preincubated TGF-β1: plates coated with FNIII8-11 alone or with the named domain
Excerpt: Therefore, we investigated whether it retained its activity while bound to recombinant FN functional domains. FNIII8-11 was adsorbed on plastic tissue culture dishes at a surface density to maximally affect the attachment and spreading of human dermal fibroblasts with or without the presence of adsorbed FNIII1-2. […] The maximum collagen secretion was approximately 25% of the amount observed when TGF-β1 remained in the medium at the concentrations indicated. […] The numbers of attached and spread cells were essentially identical when fibroblasts were cultures on plates coated with both FNIII8-11 and FNIII1-2 or FNIII8-11 alone. Similar data was obtained when fibroblasts were cultured on plates that had been coated with FNIII8-11 and FNIII12-V15 and then preincubated with TGF-β1.

[12] = target: T2, TGF-β1; assay: Equilibrium binding of TGF-β1 to FN, FN domains and peptides; conditions: equilibrium binding
Experimental: These peptides represent domains that follow the sequence pattern [QN]-X(1,2)-[ST]-X(0,1)-[IG]-[QS]-[KRQ]-[YTM]-[IG]-X(4,5)-X(0,1)-[KR]-X(1,2)-X(1,2)-[RT]-X(1,2)-[KQTS]-X(2)-T and that bind TGF-β1 with a certain affinity. […] We know of no other peptides in the human genome database that follow this pattern.
as §4

[13] = target: bFGF (Homo sapiens, UniProt P09038); assay: Equilibrium binding of bFGF (FGF-2) to FN, FN domains and peptides; conditions: equilibrium binding, intact FN; read-out: KD, bFGF (FGF-2) binding
Chain of bFGF (P09038 143-288): as above
Experimental: as §2, §4

[14] = target: EGF (Homo sapiens, UniProt P01133); assay: Binding of EGF to FN, FN domains and peptides
Chain of EGF (P01133 971-1023 limits assumed, species assumed): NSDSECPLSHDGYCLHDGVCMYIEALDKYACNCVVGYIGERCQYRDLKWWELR
Excerpt: as §3, §2, §4

[15] = target: TGF-α (Homo sapiens, UniProt P01135); assay: Binding of TGF-α to FN, FN domains and peptides
Chain of TGF-α (P01135 40-89 limits assumed, species assumed): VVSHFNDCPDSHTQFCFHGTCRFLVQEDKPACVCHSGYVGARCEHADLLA
Experimental: as §2, §4

[16] = target: FGF-1 (Homo sapiens, UniProt P05230); assay: Binding of FGF-1 to FN, FN domains and peptides
Chain of FGF-1 (P05230 whole entry, species assumed, the tested form may be a part): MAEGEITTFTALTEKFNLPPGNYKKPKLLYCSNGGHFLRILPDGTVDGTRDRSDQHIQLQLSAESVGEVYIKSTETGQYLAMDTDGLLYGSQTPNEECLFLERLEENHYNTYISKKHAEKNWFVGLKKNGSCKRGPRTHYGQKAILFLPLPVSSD
Experimental: as §2, §4

[17] = tested on: CCL-64 mink lung cells; assay: Inhibition of [3H]-thymidine incorporation by CCL-64 cells by FN-adhered TGF-β; assay type: cell-based
[18] = tested on: fibroblast chemotaxis; assay: Fibroblast chemotaxis to GFs in the presence or absence of FN domains; assay type: cell-based; conditions: in solution
Experimental: To determine whether FN functional domains modulated TGF-β1, bFGF or PDGF-BB activity in solution, fibroblast chemotaxis was performed in response to the GFs in the presence or absence of FN domains.

[19] = tested on: ERK; assay: ERK response to PDGF-BB in presence and absence of FNIII1-2; assay type: cell-based; conditions: preliminary results
Experimental: In preliminary results investigating signal transduction pathway activation of growth factors in the presence of FN GF-binding peptides, the response of ERK to PDGF-BB in the presence and absence of FNIII1-2 was studied. Without FNIII1-2, the ERK response to PDGF-BB was maximum at 20 minutes and gradually diminished over four hrs. In the presence of FNIII 1-2, the ERK response to PDGF-BB, was about 25% greater and sustained for at least four hours.

T1 sequence (P01127 82-190 limits assumed): as the sequence (P01127 82-190 limits assumed) above

With QPSHISKYILRWRPKNSVGRWKEAT [peptide 1] the Kd [1] was 250 nM, the “inhibition of PDGF-BB binding to FNIII1, FNIII12-14 and IIICS” value [2] was “marked inhibition” and the “inhibition of TGF-β1 binding to any recombinant FN domain” value [3] was “completely inhibited”. The “inhibition of bFGF binding to any recombinant FN domain” value [4] was “completely inhibited”.
In the case of “FNIII8-11: central cell-binding domain of FN containing RGD”, the “PDGF-BB binding (in words)” value [1] is reported as “did not”, the “PDGF-BB binding (in words)” value [5] is reported as “None of the GFs detectably bound” and the “TGF-β1 binding (in words)” value [6] is reported as “None of the GFs detectably bound”. The “FGF-2 binding (in words)” value [7] was “None of the GFs detectably bound”, the “VEGF binding (in words)” value [8] was “None of the GFs detectably bound” and the “binding of any GF (in words)” value [9] was “In no case did any GF bind”. The “FN-null cell survival with PDGF” value [10] was “failed to survive”, the “support of FN-null fibroblast survival in the presence of PDGF-BB” value ([10]; substrate coating, FNIII8-11 alone or + named domain) was “did not support cell survival” and the “type 1 collagen production in response to preincubated TGF-β1” value [11] was “No increase in collagen synthesis”.
In the case of “anastellin: 76-aa peptide within FNIII1; anti-angiogenic, promotes FN polymerization”, the “PDGF-BB binding (in words)” value [1] is reported as “demonstrated PDGF-BB binding”, the “PDGF-BB binding (in words)” value [5] is reported as “bound” and the “TGF-β1 binding (in words)” value [6] is reported as “bound”. The “FGF-2 binding (in words)” value [7] was “bound” and the “VEGF binding (in words)” value [8] was “all but VEGF bound”.
For “FN630-667: one half of the 76 aa FNIII1 peptide FN630-704”, the “PDGF-BB binding (in words)” value [1] was “demonstrated PDGF-BB binding”.
For “FNIII2: recombinant second FN type III repeat”, the “PDGF-BB binding (in words)” value [5] was “all four GFs bound”, the “TGF-β1 binding (in words)” value [6] was “all four GFs bound” and the “FGF-2 binding (in words)” value [7] was “all four GFs bound”. The “VEGF binding (in words)” value [8] was “all four GFs bound”.
For “FN668-704: one half of the 76 aa FNIII1 peptide FN630-704”, the “PDGF-BB binding (in words)” value [1] was “demonstrated PDGF-BB binding”.
“QPSHISKY (Synthetically generated peptide) [FN634-641, 8 aa peptide from FNIII1]” was tested, and the “TGF-β1 binding (in words)” value [12] was “minimal binding activity”.
For “FN70: 70 kDa amino terminus of FN, includes fibrin and gelatin binding domains”, the “PDGF-BB binding (in words)” value [1] was “did not”, the “PDGF-BB binding (in words)” value [5] was “None of the GFs detectably bound” and the “TGF-β1 binding (in words)” value [6] was “None of the GFs detectably bound”. The “FGF-2 binding (in words)” value [7] was “None of the GFs detectably bound”, the “VEGF binding (in words)” value [8] was “None of the GFs detectably bound” and the “binding of any GF (in words)” value [9] was “In no case did any GF bind”.
In the case of fibronectin [intact FN], the Kd [1] is reported as 49 nM, the Kd [12] is reported as 53 nM and the Kd [13] is reported as 44 nM. For the same substance, the “EGF binding (in words)” value [14] was “did not”, the “TGF-α binding (in words)” value [15] was “did not” and the “FGF-1 binding (in words)” value [16] was “did not”. The “FN-null cell survival / proliferation with PDGF-BB” value [10] was “robust proliferation” and the “functional activity of TGF-β adhered to FN” value [17] was “retained full functional activity”.
QLISIQQYGHQEVTRFDFTTTSTST [peptide 2] was tested, and the “inhibition of PDGF-BB binding to FNIII1, FNIII12-14 and IIICS” value [2] was “neither peptide 2, nor the scramble varient of peptide 1 (FN634-658s), demonstrated inhibition”.
“FNIII1-2: recombinant FN type III repeats 1-2” was tested, and the Kd [1] was 37 nM, the “PDGF-BB binding (in words)” value [5] was “all four GFs bound” and the Kd ([5]; kinetic binding) was 9.1 nM. For the same substance, the “TGF-β1 binding (in words)” value [6] was “all four GFs bound”, the “FGF-2 binding (in words)” value [7] was “all four GFs bound” and the “VEGF binding (in words)” value [8] was “all four GFs bound”. For the same substance, the “FN-null cell survival / proliferation with PDGF-BB” value [10] was “enhance survival”, the “type 1 collagen production in response to preincubated TGF-β1” value [11] was “produced type 1 collagen in a dose response fashion” and the “maximum collagen secretion, % of amount when TGF-β1 remained in the medium” value ([11]; plates coated with FNIII8-11 and FNIII1-2, preincubated with TGF-β1) was “approximately 25%”. The “chemotactic activity when assayed alone” value [18] was “no chemotactic activity”, the “enhancement of chemotactic activity of TGF-β1, bFGF and PDGF-BB” value [18] was “enhanced the chemotactic activity” and the “ERK response to PDGF-BB, increase versus without FNIII1-2” value [19] was “about 25%”. The “duration of sustained ERK response to PDGF-BB” value [19] was “at least four”.
In the case of “FNIII8-V15: FN type III repeats 8 to V15”, the “FN-null cell survival / proliferation with PDGF-BB” value [10] is reported as “robust proliferation”.
For “FNIII1: recombinant first FN type III repeat”, the “PDGF-BB binding (in words)” value [5] was “all four GFs bound”, the “TGF-β1 binding (in words)” value [6] was “all four GFs bound” and the “FGF-2 binding (in words)” value [7] was “all four GFs bound”. For the same substance, the “VEGF binding (in words)” value [8] was “all four GFs bound” and the “FN-null cell survival with PDGF” value [10] was “increased survival”.
For “FNIII1-11: recombinant FN type III repeats 1-11”, the “PDGF-BB binding (in words)” value [5] was “bound”, the “TGF-β1 binding (in words)” value [6] was “bound” and the “FGF-2 binding (in words)” value [7] was “did not”. For the same substance, the “VEGF binding (in words)” value [8] was “did not”, the “FN-null cell survival in the absence of PDGF-BB” value [10] was “survived” and the “FN-null cell survival / proliferation with PDGF-BB” value [10] was “robust proliferation”. The “FN-null cell survival with PDGF” value [10] was “The best survival response”.

— patent US8691944B2, “Fibronectin polypeptides and methods of use” (The Research Foundation for the State University of New York, priority 2005, dated 2014)
